Numbering of substitutions follows the chain as printed. Names may count otherwise. Blank lines part the entries; values can stand above or below the binder they belong to.
Biological target: T1, Human CD3eg linker (human)
T1 construct: single-chain construct; also called recombinant human CD3
T1 chain: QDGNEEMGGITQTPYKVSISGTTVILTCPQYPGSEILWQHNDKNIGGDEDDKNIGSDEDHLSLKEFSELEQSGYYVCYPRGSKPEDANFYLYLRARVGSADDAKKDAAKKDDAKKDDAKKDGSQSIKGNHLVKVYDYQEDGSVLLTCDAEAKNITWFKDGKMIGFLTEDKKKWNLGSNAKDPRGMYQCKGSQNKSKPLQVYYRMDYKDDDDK
Assay: SPR, vs unmutated H183/L072

fold change of affinity: 1 fold
B1: dBBDu183H G65R/dBBDu072L (antibody, name in Kabat numbering, V domains shown)
VH: QVQLVESGGGLVQPGRSLRLSCAASGFTFSNAWMHWVRQAPGKGLEWVAQIKDKGNAYAAYYAPSVKRRFTISRDDSKNSIYLQMNSLKTEDTAVYYCHYVHYASASTVLPAFGVDAWGQGTTVTVSS
VL: DIVMTQSPLSLPVTPGEPASISCQASQELVHMNRNTYLHWYQQKPGQAPRLLIYKVSNRFPGVPDRFSGSGSGTDFTLKISRVEAEDVGVYYCAQGTSVPFTFGQGTKLEIK

fold change of affinity: 0 fold
B2: dBBDu183H H96D/dBBDu072L (antibody, name in Kabat numbering, V domains shown)
VH: B1 VH with R68G, H102D
VL: B1 VL

fold change of affinity: 1 fold
B3: dBBDu183H G65Y/dBBDu072L (antibody, name in Kabat numbering, V domains shown)
VH: B1 VH with R68Y
VL: B1 VL

fold change of affinity: 0.2 fold
B4: dBBDu183H H96G/dBBDu072L (antibody, name in Kabat numbering, V domains shown)
VH: B1 VH with R68G, H102G
VL: B1 VL

fold change of affinity: 0.2 fold
B5: dBBDu183H H96S/dBBDu072L (antibody, name in Kabat numbering, V domains shown)
VH: B1 VH with R68G, H102S
VL: B1 VL

fold change of affinity: 0.3 fold
B6: dBBDu183H G100hK/dBBDu072L (antibody, name in Kabat numbering, V domains shown)
VH: B1 VH with R68G, G114K
VL: B1 VL

fold change of affinity: 0 fold
B7: dBBDu183H H93E/dBBDu072L (antibody, name in Kabat numbering, V domains shown)
VH: B1 VH with R68G, H99E
VL: B1 VL

fold change of affinity: 0 fold
B8: dBBDu183H G100hW/dBBDu072L (antibody, name in Kabat numbering, V domains shown)
VH: B1 VH with R68G, G114W
VL: B1 VL

fold change of affinity: 0 fold
B9: dBBDu183H G100hY/dBBDu072L (antibody, name in Kabat numbering, V domains shown)
VH: B1 VH with R68G, G114Y
VL: B1 VL

fold change of affinity: 1.5 fold
B10: dBBDu183H G100hH/dBBDu072L (antibody, name in Kabat numbering, V domains shown)
VH: B1 VH with R68G, G114H
VL: B1 VL

fold change of affinity: 0.3 fold
B11: dBBDu183H H96Q/dBBDu072L (antibody, name in Kabat numbering, V domains shown)
VH: B1 VH with R68G, H102Q
VL: B1 VL

fold change of affinity: 0 fold
B12: dBBDu183H H96V/dBBDu072L (antibody, name in Kabat numbering, V domains shown)
VH: B1 VH with R68G, H102V
VL: B1 VL

fold change of affinity: 1 fold
B13: dBBDu183H G65S/dBBDu072L (antibody, name in Kabat numbering, V domains shown)
VH: B1 VH with R68S
VL: B1 VL

fold change of affinity: 0.4 fold
B14: dBBDu183H G100hR/dBBDu072L (antibody, name in Kabat numbering, V domains shown)
VH: B1 VH with R68G, G114R
VL: B1 VL

fold change of affinity: 0.4 fold
B15: dBBDu183H G100hF/dBBDu072L (antibody, name in Kabat numbering, V domains shown)
VH: B1 VH with R68G, G114F
VL: B1 VL

fold change of affinity: 0 fold
B16: dBBDu183H H93T/dBBDu072L (antibody, name in Kabat numbering, V domains shown)
VH: B1 VH with R68G, H99T
VL: B1 VL

fold change of affinity: 1 fold
B17: dBBDu183H G65T/dBBDu072L (antibody, name in Kabat numbering, V domains shown)
VH: B1 VH with R68T
VL: B1 VL

fold change of affinity: 0 fold
B18: dBBDu183H H96T/dBBDu072L (antibody, name in Kabat numbering, V domains shown)
VH: B1 VH with R68G, H102T
VL: B1 VL

fold change of affinity: 2.4 fold
B19: dBBDu183H H93R/dBBDu072L (antibody, name in Kabat numbering, V domains shown)
VH: B1 VH with R68G, H99R
VL: B1 VL

fold change of affinity: 0 fold
B20: dBBDu183H H93F/dBBDu072L (antibody, name in Kabat numbering, V domains shown)
VH: B1 VH with R68G, H99F
VL: B1 VL

fold change of affinity: 0.4 fold
B21: dBBDu183H G100hQ/dBBDu072L (antibody, name in Kabat numbering, V domains shown)
VH: B1 VH with R68G, G114Q
VL: B1 VL

fold change of affinity: 0 fold
B22: dBBDu183H H93N/dBBDu072L (antibody, name in Kabat numbering, V domains shown)
VH: B1 VH with R68G, H99N
VL: B1 VL

fold change of affinity: 1.2 fold
B23: dBBDu183H G65V/dBBDu072L (antibody, name in Kabat numbering, V domains shown)
VH: B1 VH with R68V
VL: B1 VL

fold change of affinity: 1 fold
B24: dBBDu183H G65W/dBBDu072L (antibody, name in Kabat numbering, V domains shown)
VH: B1 VH with R68W
VL: B1 VL

fold change of affinity: 0 fold
B25: dBBDu183H H96W/dBBDu072L (antibody, name in Kabat numbering, V domains shown)
VH: B1 VH with R68G, H102W
VL: B1 VL

fold change of affinity: 0 fold
B26: dBBDu183H H96Y/dBBDu072L (antibody, name in Kabat numbering, V domains shown)
VH: B1 VH with R68G, H102Y
VL: B1 VL

fold change of affinity: 1.1 fold
B27: dBBDu183H G100hS/dBBDu072L (antibody, name in Kabat numbering, V domains shown)
VH: B1 VH with R68G, G114S
VL: B1 VL

fold change of affinity: 0.5 fold
B28: dBBDu183H G100hD/dBBDu072L (antibody, name in Kabat numbering, V domains shown)
VH: B1 VH with R68G, G114D
VL: B1 VL

fold change of affinity: 0.6 fold
B29: dBBDu183H H96K/dBBDu072L (antibody, name in Kabat numbering, V domains shown)
VH: B1 VH with R68G, H102K
VL: B1 VL

fold change of affinity: 0 fold
B30: dBBDu183H H93Y/dBBDu072L (antibody, name in Kabat numbering, V domains shown)
VH: B1 VH with R68G, H99Y
VL: B1 VL

fold change of affinity: 0 fold
B31: dBBDu183H H93W/dBBDu072L (antibody, name in Kabat numbering, V domains shown)
VH: B1 VH with R68G, H99W
VL: B1 VL

fold change of affinity: 3.4 fold
B32: dBBDu183H G100hV/dBBDu072L (antibody, name in Kabat numbering, V domains shown)
VH: B1 VH with R68G, G114V
VL: B1 VL

fold change of affinity: 0 fold
B33: dBBDu183H H93S/dBBDu072L (antibody, name in Kabat numbering, V domains shown)
VH: B1 VH with R68G, H99S
VL: B1 VL

fold change of affinity: 0 fold
B34: dBBDu183H H93G/dBBDu072L (antibody, name in Kabat numbering, V domains shown)
VH: B1 VH with R68G, H99G
VL: B1 VL

fold change of affinity: 0.2 fold
B35: dBBDu183H H93K/dBBDu072L (antibody, name in Kabat numbering, V domains shown)
VH: B1 VH with R68G, H99K
VL: B1 VL

fold change of affinity: 0 fold
B36: dBBDu183H H96F/dBBDu072L (antibody, name in Kabat numbering, V domains shown)
VH: B1 VH with R68G, H102F
VL: B1 VL

fold change of affinity: 2.3 fold
B37: dBBDu183H G100hT/dBBDu072L (antibody, name in Kabat numbering, V domains shown)
VH: B1 VH with R68G, G114T
VL: B1 VL

fold change of affinity: 0.3 fold
B38: dBBDu183H H96R/dBBDu072L (antibody, name in Kabat numbering, V domains shown)
VH: B1 VH with R68G, H102R
VL: B1 VL

fold change of affinity: 0.5 fold
B39: dBBDu183H G100hE/dBBDu072L (antibody, name in Kabat numbering, V domains shown)
VH: B1 VH with R68G, G114E
VL: B1 VL

fold change of affinity: 0 fold
B40: dBBDu183H H96N/dBBDu072L (antibody, name in Kabat numbering, V domains shown)
VH: B1 VH with R68G, H102N
VL: B1 VL

fold change of affinity: 0 fold
B41: dBBDu183H H96E/dBBDu072L (antibody, name in Kabat numbering, V domains shown)
VH: B1 VH with R68G, H102E
VL: B1 VL

fold change of affinity: 0 fold
B42: dBBDu183H H93V/dBBDu072L (antibody, name in Kabat numbering, V domains shown)
VH: B1 VH with R68G, H99V
VL: B1 VL

fold change of affinity: 0.8 fold
B43: dBBDu183H G100hN/dBBDu072L (antibody, name in Kabat numbering, V domains shown)
VH: B1 VH with R68G, G114N
VL: B1 VL

fold change of affinity: 0 fold
B44: dBBDu183H H93D/dBBDu072L (antibody, name in Kabat numbering, V domains shown)
VH: B1 VH with R68G, H99D
VL: B1 VL

fold change of affinity: 0 fold
B45: dBBDu183H H93Q/dBBDu072L (antibody, name in Kabat numbering, V domains shown)
VH: B1 VH with R68G, H99Q
VL: B1 VL
